The target of this experiment is Endogenous Ras of HEK-293T cells (human (endogenous in HEK-293T cells)). Description: cell-based or functional assay.

B1: Flag-tagged full-length GRF4 (enzyme, not shown: small tags and cut ends)
chain: MKPLAIPANHGVMGQQEKHSLPADFTKLHLTDSLHPQVTHVSSSHSGCSITSDSGSSSLSDIYQATESEAGDMDLSGLPETAVDSEDDDDEEDIERASDPLMSRDIVRDCLEKDPIDRTDDDIEQLLEFMHQLPAFANMTMSVRRELCAVMVFAVVERAGTIVLNDGEELDSWSVILNGSVEVTYPDGKAEILCMGNSFGVSPTMDKEYMKGVMRTKVDDCQFVCIAQQDYCRILNQVEKNMQKVEEEGEIVMVKEHRELDRTGTRKGHIVIKGTSERLTMHLVEEHSVVDPTFIEDFLLTYRTFLSSPMEVGKKLLEWFNDPSLRDKVTRVVLLWVNNHFNDFEGDPAMTRFLEEFENNLEREKMGGHLRLLNIACAAKAKRRLMTLTKPSREAPLPFILLGGSEKGFGIFVDSVDSGSKATEAGLKRGDQILEVNGQNFENIQLSKAMEILRNNTHLSITVKTNLFVFKELLTRLSEEKRNGAPHLPKIGDIKKASRYSIPDLAVDVEQVIGLEKVNKKSKANTVGGRNKLKKILDKTRISILPQKPYNDIGIGQSQDDSIVGLRQTKHIPTALPVSGTLSSSNPDLLQSHHRILDFSATPDLPDQVLRVFKADQQSRYIMISKDTTAKEVVIQAIREFAVTATPDQYSLCEVSVTPEGVIKQRRLPDQLSKLADRIQLSGRYYLKNNMETETLCSDEDAQELLRESQISLLQLSTVEVATQLSMRNFELFRNIEPTEYIDDLFKLRSKTSCANLKRFEEVINQETFWVASEILRETNQLKRMKIIKHFIKIALHCRECKNFNSMFAIISGLNLAPVARLRTTWEKLPNKYEKLFQDLQDLFDPSRNMAKYRNVLNSQNLQPPIIPLFPVIKKDLTFLHEGNDSKVDGLVNFEKLRMIAKEIRHVGRMASVNMDPALMFRTRKKKWRSLGSLSQGSTNATVLDVAQTGGHKKRVRRSSFLNAKKLYEDAQMARKVKQYLSNLELEMDEESLQTLSLQCEPATNTLPKNPGDKKPVKSETSPVAPRAGSQQKAQSLPQPQQQPPPAHKINQGLQVPAVSLYPSRKKVPVKDLPPFGINSPQALKKILSLSEEGSLERHKKQAEDTISNASSQLSSPPTSPQSSPRKGYTLAPSGTVDNFSDSGHSEISSRSSIVSNSSFDSVPVSLHDERRQRHSVSIVETNLGMGRMERRTMIEPDQYSLGSYAPMSEGRGLYATATVISSPSTEELSQDQGDRASLDAADSGRGSWTSCSSGSHDNIQTIQHQRSWETLPFGHTHFDYSGDPAGLWASSSHMDQIMFSDHSTKYNRQNQSRESLEQAQSRASWASSTGYWGEDSEGDTGTIKRRGGKDVSIEAESSSLTSVTTEETKPVPMPAHIAVASSTTKGLIARKEGRYREPPPTPPGYIGIPITDFPEGHSHPARKPPDYNVALQRSRMVARSSDTAGPSSVQQPHGHPTSSRPVNKPQWHKPNESDPRLAPYQSQGFSTEEDEDEQVSAV
Take B1: the “enhancement of Ras activation in cells after 8-Br-cAMP (GST-Raf1-RBD precipitation)” value worked out at 3.9 fold and the “enhancement of Ras activation in cells after 8-Br-cAMP plus H-89 (GST-Raf1-RBD precipitation)” value came out at 3.5 fold.
